Starred links: 1 amine or outer side, 2 acyl side, 3 side chain; linkers in the order of their positions; H or OH if unused. Non-standard residues stand in square brackets, D forms with d. Groups on a side chain read outwards from the residue. No end group written: not given here. *: point of attachment. dpeg = —[CO(CH2)O(CH2)2O(CH2)NH]— spacer, O=C(COCCOCN[*:1])[*:2]; C20 diacid = O=C(O)CCCCCCCCCCCCCCCCCCC(=O)*; C19 diacid = O=C(O)CCCCCCCCCCCCCCCCCC(=O)*; C18 diacid = O=C(O)CCCCCCCCCCCCCCCCC(=O)*; γGlu = O=C(O)[C@H](CCC(=O)[*:2])N[*:1]; hSer = N[C@@H](CCO)C(=O)O; αMeS = C[C@](N)(CO)C(=O)O
How the values were obtained:
NPY2R = biological target: T1, NPY2R; test: cell-based or functional assay
T1 sequence (P49146 1-381, species assumed, looked up): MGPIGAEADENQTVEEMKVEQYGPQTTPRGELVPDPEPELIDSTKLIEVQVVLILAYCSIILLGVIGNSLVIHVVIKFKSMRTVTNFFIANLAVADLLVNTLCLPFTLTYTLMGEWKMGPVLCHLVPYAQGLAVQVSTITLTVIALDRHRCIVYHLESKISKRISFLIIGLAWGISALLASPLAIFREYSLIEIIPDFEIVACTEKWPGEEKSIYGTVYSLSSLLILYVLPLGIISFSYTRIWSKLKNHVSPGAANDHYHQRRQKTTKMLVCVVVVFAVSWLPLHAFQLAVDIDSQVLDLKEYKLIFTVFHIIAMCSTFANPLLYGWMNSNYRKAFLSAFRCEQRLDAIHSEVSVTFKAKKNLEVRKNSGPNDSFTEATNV

NPY5R = biological target: T2, NPY5R; test: cell-based or functional assay
T2 sequence (Q15761 1-445, species assumed, looked up): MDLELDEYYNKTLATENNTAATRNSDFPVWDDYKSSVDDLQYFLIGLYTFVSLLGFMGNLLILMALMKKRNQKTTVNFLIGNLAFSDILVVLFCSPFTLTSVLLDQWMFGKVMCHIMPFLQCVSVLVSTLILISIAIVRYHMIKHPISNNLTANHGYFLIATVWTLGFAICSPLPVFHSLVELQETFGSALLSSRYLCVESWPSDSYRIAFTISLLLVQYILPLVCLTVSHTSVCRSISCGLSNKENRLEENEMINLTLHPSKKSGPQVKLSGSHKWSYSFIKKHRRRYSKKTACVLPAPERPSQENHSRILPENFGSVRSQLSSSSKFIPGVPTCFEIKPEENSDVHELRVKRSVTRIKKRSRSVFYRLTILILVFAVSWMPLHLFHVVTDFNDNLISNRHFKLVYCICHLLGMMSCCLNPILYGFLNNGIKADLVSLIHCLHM

Binder | NPY2R pEC50 (NPY2R) | NPY5R pEC50 (NPY5R)
PKPEAPGK([γGlu-γGlu-C20 diacid])DASPEEW[hSer]RYYKDLRHYLNWLTRQRF-NH2 [Compound A30] | 10.3 -Log(EC50, M) | 8.5 -Log(EC50, M)
PKPEAPGK([γGlu-γGlu-C18 diacid])DASPEEWDRYYKDLRHYLNWLTRQRF-NH2 [Compound A32] | 10.8 -Log(EC50, M) | 9 -Log(EC50, M)
PKPEKPGEDASPKEWNRYYK([γGlu-γGlu-C20 diacid])DLRHYLNWLTRQRF-NH2 (N-terminus assumed; SMILES CC(C)C[C@H](NC(=O)[C@H](CC(=O)O)NC(=O)[C@H](CCCCNC(=O)CC[C@H](NC(=O)CC[C@H](NC(=O)CCCCCCCCCCCCCCCCCCC(=O)O)C(=O)O)C(=O)O)NC(=O)[C@H](Cc1ccc(O)cc1)NC(=O)[C@H](Cc1ccc(O)cc1)NC(=O)[C@H](CCCNC(=N)N)NC(=O)[C@H](CC(N)=O)NC(=O)[C@H](Cc1c[nH]c2ccccc12)NC(=O)[C@H](CCC(=O)O)NC(=O)[C@H](CCCCN)NC(=O)[C@@H]1CCCN1C(=O)[C@H](CO)NC(=O)[C@H](C)NC(=O)[C@H](CC(=O)O)NC(=O)[C@H](CCC(=O)O)NC(=O)CNC(=O)[C@@H]1CCCN1C(=O)[C@H](CCCCN)NC(=O)[C@H](CCC(=O)O)NC(=O)[C@@H]1CCCN1C(=O)[C@H](CCCCN)NC(=O)[C@@H]1CCCN1)C(=O)N[C@@H](CCCNC(=N)N)C(=O)N[C@@H](Cc1c[nH]cn1)C(=O)N[C@@H](Cc1ccc(O)cc1)C(=O)N[C@@H](CC(C)C)C(=O)N[C@@H](CC(N)=O)C(=O)N[C@@H](Cc1c[nH]c2ccccc12)C(=O)N[C@@H](CC(C)C)C(=O)N[C@H](C(=O)N[C@@H](CCCNC(=N)N)C(=O)N[C@@H](CCC(N)=O)C(=O)N[C@@H](CCCNC(=N)N)C(=O)N[C@@H](Cc1ccccc1)C(N)=O)[C@@H](C)O) [Compound A29] | 10.9 -Log(EC50, M) | 9 -Log(EC50, M)
PKPEAPGK([γGlu-γGlu-C19 diacid])DASPEEWDRYYKDLRHYLNWLTRQRF-NH2 [Compound A33] | 10.4 -Log(EC50, M) | 8.9 -Log(EC50, M)
PKPEKPGK([γGlu-γGlu-C20 diacid])DASPKEWNRYYKDLRHYLNWLTRQRF-NH2 (N-terminus assumed; SMILES CC(C)C[C@H](NC(=O)[C@H](CC(=O)O)NC(=O)[C@H](CCCCN)NC(=O)[C@H](Cc1ccc(O)cc1)NC(=O)[C@H](Cc1ccc(O)cc1)NC(=O)[C@H](CCCNC(=N)N)NC(=O)[C@H](CC(N)=O)NC(=O)[C@H](Cc1c[nH]c2ccccc12)NC(=O)[C@H](CCC(=O)O)NC(=O)[C@H](CCCCN)NC(=O)[C@@H]1CCCN1C(=O)[C@H](CO)NC(=O)[C@H](C)NC(=O)[C@H](CC(=O)O)NC(=O)[C@H](CCCCNC(=O)CC[C@H](NC(=O)CC[C@H](NC(=O)CCCCCCCCCCCCCCCCCCC(=O)O)C(=O)O)C(=O)O)NC(=O)CNC(=O)[C@@H]1CCCN1C(=O)[C@H](CCCCN)NC(=O)[C@H](CCC(=O)O)NC(=O)[C@@H]1CCCN1C(=O)[C@H](CCCCN)NC(=O)[C@@H]1CCCN1)C(=O)N[C@@H](CCCNC(=N)N)C(=O)N[C@@H](Cc1c[nH]cn1)C(=O)N[C@@H](Cc1ccc(O)cc1)C(=O)N[C@@H](CC(C)C)C(=O)N[C@@H](CC(N)=O)C(=O)N[C@@H](Cc1c[nH]c2ccccc12)C(=O)N[C@@H](CC(C)C)C(=O)N[C@H](C(=O)N[C@@H](CCCNC(=N)N)C(=O)N[C@@H](CCC(N)=O)C(=O)N[C@@H](CCCNC(=N)N)C(=O)N[C@@H](Cc1ccccc1)C(N)=O)[C@@H](C)O) [Compound A27] | 10.7 -Log(EC50, M) | 8.9 -Log(EC50, M)
PKPEAPG[dK]([γGlu-dpeg-dpeg-γGlu-C20 diacid])DASPEEWNRYYADLRHYLNWLTRQRF-NH2 (N-terminus assumed; SMILES CC(C)C[C@H](NC(=O)[C@H](CC(=O)O)NC(=O)[C@H](C)NC(=O)[C@H](Cc1ccc(O)cc1)NC(=O)[C@H](Cc1ccc(O)cc1)NC(=O)[C@H](CCCNC(=N)N)NC(=O)[C@H](CC(N)=O)NC(=O)[C@H](Cc1c[nH]c2ccccc12)NC(=O)[C@H](CCC(=O)O)NC(=O)[C@H](CCC(=O)O)NC(=O)[C@@H]1CCCN1C(=O)[C@H](CO)NC(=O)[C@H](C)NC(=O)[C@H](CC(=O)O)NC(=O)[C@@H](CCCCNC(=O)CC[C@H](NC(=O)COCCOCNC(=O)COCCOCNC(=O)CC[C@H](NC(=O)CCCCCCCCCCCCCCCCCCC(=O)O)C(=O)O)C(=O)O)NC(=O)CNC(=O)[C@@H]1CCCN1C(=O)[C@H](C)NC(=O)[C@H](CCC(=O)O)NC(=O)[C@@H]1CCCN1C(=O)[C@H](CCCCN)NC(=O)[C@@H]1CCCN1)C(=O)N[C@@H](CCCNC(=N)N)C(=O)N[C@@H](Cc1c[nH]cn1)C(=O)N[C@@H](Cc1ccc(O)cc1)C(=O)N[C@@H](CC(C)C)C(=O)N[C@@H](CC(N)=O)C(=O)N[C@@H](Cc1c[nH]c2ccccc12)C(=O)N[C@@H](CC(C)C)C(=O)N[C@H](C(=O)N[C@@H](CCCNC(=N)N)C(=O)N[C@@H](CCC(N)=O)C(=O)N[C@@H](CCCNC(=N)N)C(=O)N[C@@H](Cc1ccccc1)C(N)=O)[C@@H](C)O) [Compound A18] | 10.3 -Log(EC50, M) | 9.3 -Log(EC50, M)
PKPEKPGKDASPKEWNRYYK([γGlu-γGlu-C20 diacid])DLRHYLNWLTRQRF-NH2 (N-terminus assumed; SMILES CC(C)C[C@H](NC(=O)[C@H](CC(=O)O)NC(=O)[C@H](CCCCNC(=O)CC[C@H](NC(=O)CC[C@H](NC(=O)CCCCCCCCCCCCCCCCCCC(=O)O)C(=O)O)C(=O)O)NC(=O)[C@H](Cc1ccc(O)cc1)NC(=O)[C@H](Cc1ccc(O)cc1)NC(=O)[C@H](CCCNC(=N)N)NC(=O)[C@H](CC(N)=O)NC(=O)[C@H](Cc1c[nH]c2ccccc12)NC(=O)[C@H](CCC(=O)O)NC(=O)[C@H](CCCCN)NC(=O)[C@@H]1CCCN1C(=O)[C@H](CO)NC(=O)[C@H](C)NC(=O)[C@H](CC(=O)O)NC(=O)[C@H](CCCCN)NC(=O)CNC(=O)[C@@H]1CCCN1C(=O)[C@H](CCCCN)NC(=O)[C@H](CCC(=O)O)NC(=O)[C@@H]1CCCN1C(=O)[C@H](CCCCN)NC(=O)[C@@H]1CCCN1)C(=O)N[C@@H](CCCNC(=N)N)C(=O)N[C@@H](Cc1c[nH]cn1)C(=O)N[C@@H](Cc1ccc(O)cc1)C(=O)N[C@@H](CC(C)C)C(=O)N[C@@H](CC(N)=O)C(=O)N[C@@H](Cc1c[nH]c2ccccc12)C(=O)N[C@@H](CC(C)C)C(=O)N[C@H](C(=O)N[C@@H](CCCNC(=N)N)C(=O)N[C@@H](CCC(N)=O)C(=O)N[C@@H](CCCNC(=N)N)C(=O)N[C@@H](Cc1ccccc1)C(N)=O)[C@@H](C)O) [Compound A28] | 10.5 -Log(EC50, M) | 8.8 -Log(EC50, M)
PKPEAPGK([γGlu-γGlu-C20 diacid])DASPEEW[αMeS]RYYKDLRHYLNWLTRQRF-NH2 [Compound A31] | 10.4 -Log(EC50, M) | 8.7 -Log(EC50, M)
PKPEAPGK([γGlu-dpeg-dpeg-γGlu-C20 diacid])DASPEEWNRYYADLRHYLNWLTRQRF-NH2 (N-terminus assumed; SMILES CC(C)C[C@H](NC(=O)[C@H](CC(=O)O)NC(=O)[C@H](C)NC(=O)[C@H](Cc1ccc(O)cc1)NC(=O)[C@H](Cc1ccc(O)cc1)NC(=O)[C@H](CCCNC(=N)N)NC(=O)[C@H](CC(N)=O)NC(=O)[C@H](Cc1c[nH]c2ccccc12)NC(=O)[C@H](CCC(=O)O)NC(=O)[C@H](CCC(=O)O)NC(=O)[C@@H]1CCCN1C(=O)[C@H](CO)NC(=O)[C@H](C)NC(=O)[C@H](CC(=O)O)NC(=O)[C@H](CCCCNC(=O)CC[C@H](NC(=O)COCCOCNC(=O)COCCOCNC(=O)CC[C@H](NC(=O)CCCCCCCCCCCCCCCCCCC(=O)O)C(=O)O)C(=O)O)NC(=O)CNC(=O)[C@@H]1CCCN1C(=O)[C@H](C)NC(=O)[C@H](CCC(=O)O)NC(=O)[C@@H]1CCCN1C(=O)[C@H](CCCCN)NC(=O)[C@@H]1CCCN1)C(=O)N[C@@H](CCCNC(=N)N)C(=O)N[C@@H](Cc1c[nH]cn1)C(=O)N[C@@H](Cc1ccc(O)cc1)C(=O)N[C@@H](CC(C)C)C(=O)N[C@@H](CC(N)=O)C(=O)N[C@@H](Cc1c[nH]c2ccccc12)C(=O)N[C@@H](CC(C)C)C(=O)N[C@H](C(=O)N[C@@H](CCCNC(=N)N)C(=O)N[C@@H](CCC(N)=O)C(=O)N[C@@H](CCCNC(=N)N)C(=O)N[C@@H](Cc1ccccc1)C(N)=O)[C@@H](C)O) [Compound A17] | 10.2 -Log(EC50, M) | 8.7 -Log(EC50, M)

Source: patent US20250084142A1 (INTARCIA THERAPEUTICS, published 2025)
